Two molecules from doi:10.1101/2021.04.12.439291 (bioRxiv, 2021) can be followed below.

The chains are these.
B1: U2BR peptide (Ubr1 1165-1200) (peptide, UniProt P19812 1165-1200, looked up)
peptide: KERKRRLAKKHQARLLAKFNNQQTKFMKEHESEFDE
B2: Ubc2 (yeast) (enzyme, Saccharomyces cerevisiae, UniProt P06104 1-172, looked up)
chain: MSTPARRRLMRDFKRMKEDAPPGVSASPLPDNVMVWNAMIIGPADTPYEDGTFRLLLEFDEEYPNKPPHVKFLSEMFHPNVYANGEICLDILQNRWTPTYDVASILTSIQSLFNDPNPASPANVEAATLFKDHKSQYVKRVKETVEKSWEDDMDDMDDDDDDDDDDDDDEAD

The target in experiment [1] is B2. Description: ITC. On the technique in general: Isothermal titration calorimetry measures the heat released or taken up as one component is titrated into another.
In experiment [2] the target is Ubr1 (yeast, FLAG-tagged) (Saccharomyces cerevisiae, UniProt P19812 1-1950). The experiment can be described thus: cryo-EM structure.
Sequence of Ubr1 (yeast, FLAG-tagged) (P19812 whole entry): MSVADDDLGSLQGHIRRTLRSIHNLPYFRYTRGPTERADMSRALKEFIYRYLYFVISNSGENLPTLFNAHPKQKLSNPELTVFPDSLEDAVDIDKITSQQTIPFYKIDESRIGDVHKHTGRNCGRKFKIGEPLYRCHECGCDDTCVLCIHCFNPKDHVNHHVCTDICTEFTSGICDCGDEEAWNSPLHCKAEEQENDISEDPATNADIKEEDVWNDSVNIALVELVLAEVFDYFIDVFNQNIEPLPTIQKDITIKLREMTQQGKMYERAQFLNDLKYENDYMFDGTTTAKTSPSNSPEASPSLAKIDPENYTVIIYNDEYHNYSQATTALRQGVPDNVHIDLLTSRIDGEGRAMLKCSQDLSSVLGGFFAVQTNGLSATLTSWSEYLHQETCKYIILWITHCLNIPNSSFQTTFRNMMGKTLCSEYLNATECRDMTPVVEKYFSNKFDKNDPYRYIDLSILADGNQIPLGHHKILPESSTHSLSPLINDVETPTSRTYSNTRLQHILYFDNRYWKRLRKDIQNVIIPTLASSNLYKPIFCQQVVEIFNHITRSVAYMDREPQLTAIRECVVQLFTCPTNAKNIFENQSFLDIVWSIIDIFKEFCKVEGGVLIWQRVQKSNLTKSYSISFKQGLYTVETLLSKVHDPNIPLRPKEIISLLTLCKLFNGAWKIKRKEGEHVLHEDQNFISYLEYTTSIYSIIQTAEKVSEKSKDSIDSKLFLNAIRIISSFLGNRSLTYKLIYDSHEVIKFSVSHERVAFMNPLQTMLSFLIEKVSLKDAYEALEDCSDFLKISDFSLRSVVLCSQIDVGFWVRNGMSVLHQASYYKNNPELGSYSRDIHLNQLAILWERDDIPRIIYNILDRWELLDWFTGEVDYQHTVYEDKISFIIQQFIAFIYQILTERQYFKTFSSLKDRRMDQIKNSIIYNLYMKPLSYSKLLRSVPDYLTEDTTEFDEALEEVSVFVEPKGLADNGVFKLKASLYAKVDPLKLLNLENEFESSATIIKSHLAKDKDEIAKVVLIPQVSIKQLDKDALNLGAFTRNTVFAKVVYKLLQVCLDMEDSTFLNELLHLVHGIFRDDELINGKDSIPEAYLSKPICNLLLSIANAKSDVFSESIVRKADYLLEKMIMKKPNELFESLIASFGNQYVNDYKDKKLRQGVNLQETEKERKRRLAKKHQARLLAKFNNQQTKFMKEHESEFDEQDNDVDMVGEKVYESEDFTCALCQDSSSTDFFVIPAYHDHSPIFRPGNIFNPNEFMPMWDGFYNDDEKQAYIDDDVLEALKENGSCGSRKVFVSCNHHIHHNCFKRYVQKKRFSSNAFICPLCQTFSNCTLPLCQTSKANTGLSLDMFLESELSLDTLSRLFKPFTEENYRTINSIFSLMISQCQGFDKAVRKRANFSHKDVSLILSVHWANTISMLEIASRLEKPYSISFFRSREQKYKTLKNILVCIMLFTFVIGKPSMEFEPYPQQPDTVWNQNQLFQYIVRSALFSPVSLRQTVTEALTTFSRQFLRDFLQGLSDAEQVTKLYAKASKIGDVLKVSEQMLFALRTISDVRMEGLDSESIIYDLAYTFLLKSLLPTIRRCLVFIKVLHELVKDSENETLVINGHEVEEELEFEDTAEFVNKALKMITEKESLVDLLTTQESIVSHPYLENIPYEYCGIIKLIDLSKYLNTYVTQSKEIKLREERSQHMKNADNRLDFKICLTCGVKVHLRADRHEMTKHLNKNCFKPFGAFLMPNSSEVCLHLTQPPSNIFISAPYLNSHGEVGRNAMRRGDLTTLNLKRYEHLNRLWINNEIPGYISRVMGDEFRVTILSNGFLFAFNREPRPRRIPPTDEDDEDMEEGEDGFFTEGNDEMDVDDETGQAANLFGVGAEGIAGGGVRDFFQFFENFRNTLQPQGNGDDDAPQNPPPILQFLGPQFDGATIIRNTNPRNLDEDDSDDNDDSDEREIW

Consider B1, for which binding in experiment [1] was put at a Kd of 143 ± 45 nM.
As to B2, the binding result in experiment [2] is “binds”.
